The values below come from paper PMC4930401.

In the experiment the target is BF520.1 (human (infant BF520)). The experiment can be described thus: BLI.

In turn, “BF520.W14.E3 native-like SOSIP trimer (complex)” displayed a Kd of 8 nM.
